Results from article PMC11758000.

Target: FGFR3-TACC3 RT112 (fibroblast growth factor receptor 3 fused with transforming acidic coiled-coil-containing protein 3), 5F1Y variant, in SMA lipid particles
Assay: mass photometry; RT112-SMALPs at 500 nM incubated on ice for 30 min with FGF1 at a 10x molar ratio, drop dilution into 50 mM HEPES, 500 mM NaCl, 0.5% v/v glycerol, 1 mM TCEP, pH 7.9, room temperature; compared with ligand-free RT112

For “FGFR3-TACC3 RT112 (fibroblast growth factor receptor 3 fused with transforming acidic coiled-coil-containing protein 3), 5F1Y variant, in SMA lipid particles”, which stoichiometry N is on record?
The stoichiometry N was 2.
